Among the data in paper PMC10178974 are Kd values, retold here.

Common to all, as to test: BLI
Data set [1] deals with Influenza A virus virions (hemagglutinin is the stated target of RHA0385) (Influenza A virus H7N1). To be noted: BLI: PBS pH 7.4 ([…]; temperature not stated. Background: In BLI a coated tip is dipped into the sample, and binding shifts an interference pattern.
The test system of data set [2] is Respiratory syncytial virus virions (surface protein not named) (Respiratory syncytial virus A2). To be noted: BLI: PBS pH 7.4 (8 mM Na2HPO4, 1.5 mM KH2PO4, 140 mM NaCl, 10 mM KCl), 0.01% Tween-20, 0.1 mg/mL BSA; biotin-aptamer on streptavidin sensor; virus as analyte ….
Data set [3] has as its target SARS-CoV-2 virions (S protein RBD is the stated target of RBD-1C) (SARS-CoV-2) (UniProt P0DTC2). To be noted: BLI: PBS pH 7.4 ([…]; temperature not stated.
Data set [4] relates to Adenovirus type 5 virions (surface protein not named) (Human adenovirus 5?). To be noted: BLI: PBS pH 7.4 (8 mM Na2HPO4, 1.5 mM KH2PO4, 140 mM NaCl, 10 mM KCl), 0.01% Tween-20, 0.1 mg/mL BSA; biotin-aptamer on streptavidin sensor; virus as analyte ….

As for “AGTGCGGTGAGCCGTCGGACATACAAATAC [Biotin-H8]”, the equilibrium dissociation constant (Kd) is 3.5 pM in data set [1] and 0.031 pM in data set [2].
Consider “CAGCACCGACCTTGTGCTTTGGGAGTGCTGGTCCAAGGGCGTTAATGGACA [Biotin-RBD-1C]”, for which, in data set [3], the Kd was 0.071 pM.
“GTGCCAGCTATGCCATTGGCGGGTCGTCCAATTCGAGAGGTCCCCTAGCGTCTATCTCTGCTGC [Biotin-ADV-20]”: the equilibrium dissociation constant (Kd) turned out to be 0.011 pM in data set [4], 2.6 pM in data set [1], 0.38 pM in data set [2] and 50 pM in data set [3].
In turn, “TTGGGGTTATTTTGGGAGGGCGGGGGTT [Biotin-RHA0386 (RHA0385 in text)]” came in with a Kd in data set [1] of 0.021 pM.

The term Kd denotes a measure of binding affinity in units of concentration.
